Measured values reported in publication PMC5431093, “A HAND to TBX5 Explains the Link Between Thalidomide and Cardiac Diseases” (Scientific Reports, 2017).
Read-outs that look alike come from different tables or passages of the source.

T1: HA-tagged TBX5 (murine Tbx5 isoform A) (mouse, UniProt P70326 1-518)
T1 sequence (looked up): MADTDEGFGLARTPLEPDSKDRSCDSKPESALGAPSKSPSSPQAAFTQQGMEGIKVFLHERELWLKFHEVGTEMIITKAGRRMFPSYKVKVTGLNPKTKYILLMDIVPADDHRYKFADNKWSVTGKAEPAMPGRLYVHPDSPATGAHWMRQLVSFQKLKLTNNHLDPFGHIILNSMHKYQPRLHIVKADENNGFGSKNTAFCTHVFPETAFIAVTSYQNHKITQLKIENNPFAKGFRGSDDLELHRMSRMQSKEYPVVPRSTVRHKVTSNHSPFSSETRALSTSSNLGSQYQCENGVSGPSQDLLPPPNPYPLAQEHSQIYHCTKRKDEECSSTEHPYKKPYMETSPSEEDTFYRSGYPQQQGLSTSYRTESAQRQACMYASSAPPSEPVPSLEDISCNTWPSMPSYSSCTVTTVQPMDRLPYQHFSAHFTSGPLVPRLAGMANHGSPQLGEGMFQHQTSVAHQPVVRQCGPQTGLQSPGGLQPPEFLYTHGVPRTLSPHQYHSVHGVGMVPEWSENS

B1: Flag-tagged HAND2 wild type (natural protein, mouse, UniProt Q61039 1-217, looked up)
chain: MSLVGGFPHHPVVHHEGYPFAAAAAAAAAAAASRCSHEENPYFHGWLIGHPEMSPPDYSMALSYSPEYASGAAGLDHSHYGGVPPGAGPPGLGGPRPVKRRGTANRKERRRTQSINSAFAELRECIPNVPADTKLSKIKTLRLATSYIAYLMDLLAKDDQNGEAEAFKAEIKKTDVKEEKRKKELNEILKSTVSSNDKKTKGRTGWPQHVWALELKQ

How the values were obtained:
[1] = target: HA-tagged TBX5 (murine Tbx5 isoform A) (mouse) (UniProt P70326); assay: co-IP; nuclear extracts of separately transfected HEK293 cells mixed (100 ug each), anti-HA on Protein A/G Dynabeads, 2 h, alone or with DMSO; blot with anti-Flag, re-blot with anti-HA
[2] = target: HA-tagged TBX5 (murine Tbx5 isoform A) (mouse) (UniProt P70326); assay: as above; remark: listed apart in the source
[3] = target: T1, HA-tagged TBX5 (murine Tbx5 isoform A); assay: cell-based or functional assay

| percent inhibition of the co-precipitation against wild-type HAND2 [1] [%] | percent inhibition of the co-precipitation against wild-type HAND2 [2] [%] | synergistic activation of the rat NPPA promoter coupled to luciferase in HEK293 cells co-transfected with TBX5 and HAND2 [3] [fold] | Molecule |
| --- | --- | --- | --- |
| < 90 | < 80 |  | Flag-tagged HAND2 p.G202V variant (from UniProt Q61039 1-217) (natural protein) |
|  |  | ≤ 22 | B1 |
